Test results from patent publication US20240309105A1 (Boehringer Ingelheim, published 2024).
One block for each molecule: values may come before it.

Tests used:
[1] = molecular target: T1, human CD40 on cells (human, UniProt P25942 21-277); assay: FACS on B cells in whole blood of healthy subjects, free CD40 detected with excess FITC-labeled antibody; 72 hours after a single 80 mg SC dose
[2] = molecular target: T1, human CD40 on cells; assay: FACS on B cells in whole blood of healthy subjects; 240 mg SC dose group, Day 78
[3] = molecular target: T1, human CD40 on cells; assay: cell-based or functional assay
[4] = molecular target: T1, human CD40 on cells; assay: FACS on B cells in whole blood of healthy subjects; 180 mg SC dose group, Day 64
[5] = molecular target: T1, human CD40 on cells; assay: FACS on B cells in whole blood of healthy subjects, free CD40 detected with excess FITC-labeled antibody; 72 hours after a single 120-240 mg SC dose
[6] = molecular target: T1, human CD40 on cells; assay: binding to human B cells
[7] = molecular target: T1, human CD40 on cells; assay: FACS on B cells in whole blood of healthy subjects; after the fourth once-weekly SC dose, all doses, until Day 39
[8] = molecular target: T1, human CD40 on cells; assay: cell-based or functional assay; remark: listed apart in the source
[9] = molecular target: T2, human CD40-Fc protein (human, UniProt P25942 21-193); assay: ForteBio Octet, human CD40-Fc, with and without human serum
T2 construct: also called recombinant CD40 protein; not shown: Fc part
Procedure: Due to antibody and CD40-Fc bivalency avidity effects prevent Kds below 100 pM from being determined accurately. In addition, the binding to CD40-Fc was analyzed in the absence and presence of 50% human serum and no significant effect of serum on binding was observed (data not shown)

[10] = molecular target: T3, cynomolgus monkey CD40 on cells (cynomolgus monkey, UniProt G7PG38 21-278); assay: ratio of binding EC50, human over cynomolgus; ratio > 1 means increased binding to Cyno compared to Human
T3 construct: whole, on cells; Cell surface CD40 on cynomolgus B cells and platelets; also called Cyno CD40; CD40 on cynomolgus monkey B cells and platelets

[11] = molecular target: T1, human CD40 on cells; assay: cell binding, flow cytometry (cell line not given)
Procedure: The specific binding of humanized antibodies to cellular CD40 was analyzed by flow cytometry using human CD40-transfected HEK293 cells. Concentration-dependent binding of Antibody A, Antibody B, and Antibody C was observed. […] No binding was detected on CD40 negative cells such as non-transfected HEK293 cells or the T cell line HSB-2 thus confirming selective binding to CD40 (data not shown).

[12] = molecular target: T1, human CD40 on cells; assay: flow cytometry, human CD40-transfected HEK293 cells
[13] = molecular target: T1, human CD40 on cells; assay: cell-based or functional assay; remark: listed apart in the source
[14] = molecular target: T1, human CD40 on cells; assay: FITC-labeled antibody on Ramos cells

T2 sequence (P25942 21-193 limits assumed): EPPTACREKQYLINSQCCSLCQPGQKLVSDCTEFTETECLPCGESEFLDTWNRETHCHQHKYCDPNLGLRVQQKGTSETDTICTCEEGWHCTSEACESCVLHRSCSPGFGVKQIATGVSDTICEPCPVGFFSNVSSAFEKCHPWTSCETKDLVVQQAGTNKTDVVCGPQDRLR
T1 sequence (P25942 21-277): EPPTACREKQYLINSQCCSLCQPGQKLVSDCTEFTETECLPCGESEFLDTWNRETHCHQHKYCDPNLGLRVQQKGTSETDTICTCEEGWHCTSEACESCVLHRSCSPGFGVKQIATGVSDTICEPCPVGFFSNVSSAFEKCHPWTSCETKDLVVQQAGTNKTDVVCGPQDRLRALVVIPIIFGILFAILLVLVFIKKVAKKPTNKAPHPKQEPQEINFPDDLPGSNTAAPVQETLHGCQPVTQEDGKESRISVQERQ

CD40 receptor occupancy (RO) [1]: 89%
CD40 receptor occupancy (RO) [2]: 68%
inhibition of CD54 upregulation after the fourth once-weekly SC dose, all doses, up to Day 39 [3]: > 90%
inhibition of CD54 upregulation, 80 mg SC single dose, first post-dose measurement (72 hours) [3]: 87%
inhibition of CD54 upregulation, 80 mg SC, Day 7 post dose [3]: 95%
inhibition of CD54 upregulation, 180 mg group, Day 64 [3]: 89%
inhibition of CD54 upregulation, 240 mg group, Day 78 [3]: 51%
inhibition of CD54 upregulation, all other doses (120-240 mg SC), from 72 hours onwards [3]: 95%
inhibition of CD54 upregulation, higher doses (120-240 mg SC), 72 hours after the first dose [3]: > 90%
CD40 receptor occupancy (RO) [4]: 79%
CD40 receptor occupancy (RO) [5]: 94 to 95%
EC90 [6]: 6.85 nM
CD40 receptor occupancy (RO) [7]: > 90%
Molecule: an antibody of the present invention (BI 655064)

B cell proliferation: Agonism (SI*) [8]: < 2 SI (Stimulation Index)
Kd [9]: < 0.1 nM
Species cross-react.: Hu/Cyno Binding (EC50 ratios) [10]: 1 ratio
EC50 [11]: 1.7 nM
B1: Antibody C (antibody, human IgG1, kappa, L234A L235A, V domains shown)
VH: QVQLVQSGAEVKKPGASVKVSCTASGFNIKDYYVHWVKQAPGQGLEWMGRIDPEDGDSKYAPKFQGKATMTADTSTSTVYMELSSLRSEDTAVYYCTTSYYVGTYGYWGQGTLVTVSS
VL: DIQMTQSPSSLSASVGDRVTITCSASSSVSYMLWFQQKPGKAPKLLIYSTSNLASGVPSRFSGSGSGTDFTLTISSLQPEDFATYYCQQRTFYPYTFGGGTKVEIKR
notes: also called humanized 2H11

B cell proliferation: Agonism (SI*) [8]: < 2 SI (Stimulation Index)
EC50 [12]: ~1 nM
Kd [9]: < 0.1 nM
B cell proliferation assay, average IC50 [13]: ~0.02 nM
EC50 [11]: 0.9 nM
B2: 4D11 (Kirin/Astellas) anti-CD40 antibody (antibody, V domains shown)
VH: QLQLQESGPGLLKPSETLSLTCTVSGGSISSPGYYGGWIRQPPGKGLEWIGSIYKSGSTYHNPSLKSRVTISVDTSKNQFSLKLSSVTAADTAVYYCTRPVVRYFGWFDPWGQGTLVTVSS
VL: AIQLTQSPSSLSASVGDRVTITCRASQGISSALAWYQQKPGKAPKLLIYDASNLESGVPSRFSGSGSGTDFTLTISSLQPEDFATYYCQQFNSYPTFGQGTKVEIK

binding result [14]: binds
B3: 2H11 (antibody, V domains shown)
VH: EVQLQQSGAELVRPGASVKLSCTASGFNIKDYYVHWVKQRPEKGLEWIGRIDPEDGDSKYAPKFQGKATMTADTSSNTAYLHLSSLTSEDTAVYYCTTSYYVGTYGYWGQGTTLTVSS
VL: QIVLTQSPAIMSASPGEKVTITCSASSSVSYMLWFQQKPGTSPKLWIYSTSNLASGVPARFGGSGSGTSYSLTISRMEAEDAATYYCQQRTFYPYTFGGGTKLEIK
notes: Mouse monoclonal antibody; also called murine anti-CD40 mAb 2H11

B cell proliferation: Agonism (SI*) [8]: < 2 SI (Stimulation Index)
Kd [9]: < 0.1 nM
Species cross-react.: Hu/Cyno Binding (EC50 ratios) [10]: 3 ratio
EC50 [11]: 1.2 nM
B4: Antibody A (antibody, human IgG1, kappa, L234A L235A, V domains shown)
VH: EVQLVESGGGLVKPGGSLRLSCAASGFTFSDYGMHWVRQAPGKGLEWVAYISSGNRIIYYADTVKGRFTISRDNAKNSLYLQMNSLRAEDTALYYCARQDGYRYAMDYWAQGTLVTVSS
VL: DIVMTQSPDSLAVSLGERATMSCKSSQSLLNSGNQKNYLTWHQQKPGQPPKLLIYWTSTRESGVPDRFSGSGSGTDFTLTISSLQAEDVAVYYCQNDYTYPLTFGGGTKVEIKR
notes: also called humanized 20E2

B cell proliferation: Agonism (SI*) [8]: < 2 SI (Stimulation Index)
Kd [9]: < 0.1 nM
Species cross-react.: Hu/Cyno Binding (EC50 ratios) [10]: 2 ratio
EC50 [11]: 1.5 nM
B5: Antibody B (antibody, human IgG1, kappa, L234A L235A, V domains shown)
VH: EVQLVESGGGLVKPGGSLRLSCAASGFTFSDYGMHWVRQAPGKGLEWVAYISSGNRIIYYADTVKGRFTISRDNAKNSLYLQMNSLRAEDTAVYYCARQDGYRYAMDYWGQGTLVTVSS
VL: DIVMTQSPDSLAVSLGEKVTINCKSSQSLLNSGNQKNYLTWHQQKPGQPPKLLIYWTSTRESGVPDRFSGSGSGTDFTLTISSLQAEDVAVYYCQNDYTYPLTFGGGTKVEIKR
notes: also called humanized 20E2
